Laboratory results from US20250215089A1.

Key:
human PD-L1 (human) [1] = biological target: human PD-L1 (human) (UniProt Q9NZQ7); experiment: cell-based or functional assay
human PD-L1 (human) [2] = biological target: human PD-L1 (human) (UniProt Q9NZQ7); experiment: FACS, CHO-K1/hPD-L1 cells
[3] = biological target: cynomolgus monkey PD-L1 (cynomolgus monkey); experiment: FACS, CHO-K1/cyPD-L1 cells
human PD-L1 (human) [4] = biological target: human PD-L1 (human) (UniProt Q9NZQ7); experiment: FACS, NCI-H226 cells
[5] = biological target: cynomolgus monkey CD40 (cynomolgus monkey); experiment: FACS, CHO-K1/cyCD40 cells
human CD40 (human) [6] = biological target: human CD40 (human) (UniProt P25942); experiment: FACS, Raji cells
human CD40 (human) [7] = biological target: human CD40 (human) (UniProt P25942); experiment: FACS, CHO-K1/hCD40 cells

Chain of human PD-L1 (human) (Q9NZQ7 19-290): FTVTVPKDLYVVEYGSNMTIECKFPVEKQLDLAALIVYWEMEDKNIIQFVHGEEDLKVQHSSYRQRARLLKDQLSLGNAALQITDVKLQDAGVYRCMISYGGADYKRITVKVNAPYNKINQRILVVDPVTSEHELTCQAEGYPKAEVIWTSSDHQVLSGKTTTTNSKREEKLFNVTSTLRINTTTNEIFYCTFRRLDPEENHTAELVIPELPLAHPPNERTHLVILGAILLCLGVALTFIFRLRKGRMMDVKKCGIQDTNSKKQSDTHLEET
Chain of human CD40 (human) (P25942 21-277): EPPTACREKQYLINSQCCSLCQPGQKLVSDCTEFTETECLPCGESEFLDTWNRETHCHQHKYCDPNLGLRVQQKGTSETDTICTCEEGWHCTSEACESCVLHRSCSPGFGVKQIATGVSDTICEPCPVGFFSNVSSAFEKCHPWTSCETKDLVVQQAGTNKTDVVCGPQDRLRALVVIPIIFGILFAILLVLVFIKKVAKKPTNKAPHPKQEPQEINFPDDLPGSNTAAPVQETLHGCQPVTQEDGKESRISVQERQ

Row | Maximum RLU, Jurkat-NFAT-hPD1 reporter (human PD-L1 (human) [1]) | Maximum MFI (human PD-L1 (human) [2]) | Maximum MFI [3] | Maximum MFI (human PD-L1 (human) [4]) | Maximum MFI [5] | Maximum MFI (human CD40 (human) [6]) | Maximum MFI (human CD40 (human) [7]) | Substance
1 | 2370 RLU | 86 MFI | – | – | – | – | – | hIgG1 (antibody)
2 | 403 RLU | 170 MFI | 50 MFI | 55 MFI | 59 MFI | 78 MFI | 23 MFI | Isotype (antibody)
